± gives the uncertainty stated by the source.

The nature of the data set: amyloid nucleation score (Sup35N fusion, yeast selection) (log enrichment); library NNK1; higher = more nucleation; inactive = no reads after selection. Put shortly: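 Yeast lacking psi expressed peptides of 20 random codons fused to Sup35N, received 100 μM copper sulfate for 24 hours, and were then grown for 7 days at 30°C on medium lacking adenine and uracil. Illumina sequencing of input and output plasmid inserts provided the reads. Nucleation scores are DiMSum log enrichments of output over input, centred on the mode of non-aggregating sequences. Any sequence with under 100 input reads was excluded.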
In the case of YRYHVSCTYAVSLGAAKSNA, the amyloid nucleation score is -0.078 ± 0.72.

In the case of CDNGPLLIVGVRHRTRACVT, the amyloid nucleation score turned out to be 0.861 ± 0.38. Regarding FLLLCRSFFSARTILRCTMG, the amyloid nucleation score is 0.072 ± 0.81. Turning to DRRYVKLLRLYCCILECTKV, the amyloid nucleation score was -0.18 ± 0.38. As to RRMTDLFV, the amyloid nucleation score was -0.354 ± 0.3. With IFGYMSGS the figure was 0.543 ± 0.63; with FLDASVDKSLSYPGHIVAFR, -1.57 ± 1.7. Next, ISWRNYWY: 1.01 ± 0.22. As to CRRRMFLQVPRIYFEMRSYA, the amyloid nucleation score was 0.492 ± 0.91. With LVMTYVFLDCI the figure was -0.634 ± 1.1; with WISFPLV, 0.046 ± 0.48. For the substance WFFGRYHGTGQNMFRG, the amyloid nucleation score was 2.15 ± 0.18. GNLFITACFHAFVIWFHNGN: the amyloid nucleation score result was “inactive”. As to CCPRYMSIDSIDDRFYDKSF, the amyloid nucleation score entry was “inactive”.

Turning to DIKYECIS, the amyloid nucleation score came to 0.204 ± 0.34. With SSSYVYYEGRFILTFGLF the figure was -0.157 ± 0.47; with LDFRGMALENKVLDFRVCSV, 0.658 ± 0.3; with FVCRFQYFSRYATNYFYVWC, “inactive”. TCRVEMPSCCCFSGIVGCDR came in with an amyloid nucleation score of 3.53 ± 0.067. In the case of QSVQHFGGYTKTLGASMGTF, the amyloid nucleation score is -0.797 ± 2.4. Next, SVVLCMNCGGCLMEIKGGGY: 4.89 ± 0.096; PIVLWTIIPNTFKS: 1.25 ± 0.17; IWLSLYIAFYGCLHGWFPSQ: 0.645 ± 0.6. The substance DSCVFARSIVVNSNSFEVIE came in with an amyloid nucleation score of 0.061 ± 0.47. Next, YDNIWYKVNRAYEIRWLVGG: -0.383 ± 1.7.

Turning to PRSDNSFSVQVEFVDICEVK, the amyloid nucleation score was -0.437 ± 0.56. Next, DHVDYSILNYSPMFDCVKFC: 0.028 ± 0.27; RVHSIDENVWMVQGQNSRAG: 3.73 ± 0.16; VYRIWSSSGNYKEVYAHRAL: 0.947 ± 0.93. Next, SQTSVPGGSDEAGAGVKQGF: 0.134 ± 0.56; FFDSRFLFDSRTGSMYA: -1.71 ± 1.5; CNTLDLMAFNSLYLSPVSTC: “inactive”. With HVTMKMIASSTMLDQHSWAR the figure was -0.065 ± 0.32; with FLNLGSSDQSHYSCTKEWSH, -0.157 ± 0.51; with GRLIGDSWLGYTKSGPGRKR, “inactive”. On to ILNTTHCHKHKKTCEHSACD, for which the amyloid nucleation score was -0.883 ± 0.48. With LCSWADLDNKDLKSPR the figure was 0.102 ± 0.43. Next, RCVSAFLLLFSMHRHG: 1.28 ± 0.36. Next, NSNLVFFRQYIYTVLYTNSF: 5.817 ± 0.048. LYDCCYIFTYYGSRYLTQKS: the amyloid nucleation score is -0.091 ± 0.27. Next, ACHCNIFFHR: 6.325 ± 0.058; QRVGCKW: -0.771 ± 0.88. With TCLTY the figure was -0.846 ± 2.4; with LDRFCYLVYRRRCGYSRWQM, 0.527 ± 0.39. Next, TAKSFFRVHFSHWTRHSPSR: 4.16 ± 0.14; LIPCGPLFLFMQTNIDRANM: 7.845 ± 0.044.

The substance QIQIT displayed an amyloid nucleation score of 0.152 ± 1. Next, ERTMGLSVMWAIECCLRNPG: 2.05 ± 0.24. With AFRIFPHL the entry was “inactive”; with AWDFWTWVSSGVWWYDASVR, -0.398 ± 0.91.

With IGYLDMGNRFGYLLARC, the amyloid nucleation score was -1.1 ± 0.62. Turning to CVLSPALFMRARLLRGILGR, the amyloid nucleation score amounted to 0.332 ± 0.72. With CVVRVWVYRGGKYVYLEKAP the figure was -1.48 ± 1.4. On to NEPHWSLLRF, for which the amyloid nucleation score was -0.535 ± 0.65.

Regarding ELSGGA, the amyloid nucleation score stood at 3.75 ± 0.1. With YAMNPHTDGPCTFNWVFYGK the figure was 8.094 ± 0.056.

Take MEIRYYFVFEEDGRVFEGGT: the amyloid nucleation score is 0.025 ± 0.43. In turn, ENGIGN gave an amyloid nucleation score of 0.453 ± 0.22. With EIDNLHWVLVVNYPTSQFKR the figure was -0.02 ± 0.39; with GKVFVVSVKCNEVVDFGWCQ, 0.073 ± 0.28.

The substance SIWCGRYIIMESVGTPLRSR yielded an amyloid nucleation score of 0.438 ± 0.8. LYIYWCSWVNGTFT yielded an amyloid nucleation score of 0.393 ± 0.33. For YVNRVPLLEVLCP, the amyloid nucleation score is -0.118 ± 1. Substance LEAMPMCGEELRSLYTMVNV gave an amyloid nucleation score of 0.552 ± 0.42.

For NNAGYRYALRKISSHLLRPV, the amyloid nucleation score is -0.092 ± 0.44. With ICSNGRARPGNMSV, the amyloid nucleation score was -0.047 ± 1.7.

SEAMGMDNSQWSFALFMASM displayed an amyloid nucleation score of 0.184 ± 0.48. With GCYSQNICCVTCIKRRSIVS the figure was -1.02 ± 0.69; with LTNRSLIVRDWCTSTYPNPS, 0.08 ± 0.53. As to DWNYKFMGRRLEHMCQVLM, the amyloid nucleation score is -1.03 ± 1.1. Next, MFVSLSSFSYLGKTLLVFFV: “inactive”; VLFLTGFGNHSFRTDQMATG: 0.287 ± 0.64. With VFNVGYLV the figure was -1.21 ± 0.55; with DSRYYTDADALVDR, “inactive”; with RPNMVNVKNSRRFSL, 0.257 ± 0.48. On to LMSLEHELRVKS, for which the amyloid nucleation score entry is “inactive”.

As for RCISIRAYVTLFRNEYLCSN, the amyloid nucleation score came out at 4.86 ± 0.1. The substance GGRLEKRTCASCTSGQVVGV registered an amyloid nucleation score of 0.294 ± 0.42. In the case of PLFVVRIDEISSDSIRGAGH, the amyloid nucleation score was 1.88 ± 0.53. With IAILNLDNLGGYGCNCFHYF the figure was 4.23 ± 0.13.

Regarding STYTALIFLHRSVFDLPSVQ, the amyloid nucleation score was 0.787 ± 0.68. Regarding IWTKSCDCVCSCGGYQGCYR, the amyloid nucleation score was -0.038 ± 0.19. Next, GVSSLLGRHRRGVSFEGDSV: -0.65 ± 0.54.

For the substance LDDWRVMLVSANMHHVRC, the amyloid nucleation score was -0.642 ± 0.39. Next, VIGCAGSDLNLRSILCFILC: -0.364 ± 0.28. Substance RKFRNKAIISIIDVYRPAAI registered an amyloid nucleation score of 1.01 ± 0.62. For the substance CILRRMDADFIFIVCVDCFG, the amyloid nucleation score is -0.055 ± 0.4. SSMMLDYCRSYCANISTKCQ returned an amyloid nucleation score of 0.675 ± 0.24. In the case of HVVVHDGSTQLWDARVRKWP, the amyloid nucleation score was 0.558 ± 0.64. With VRQSGLCIKWEVTRRAKRSV the figure was 0.699 ± 0.85; with VLGPRWECMNRTYWRRTMVV, -0.011 ± 0.31.

Take WHPAKMILEYAEVRSNL: the amyloid nucleation score is -0.032 ± 0.39.

RSFEGKRFNVGWLFASATFM registered an amyloid nucleation score of 0.157 ± 0.46. For SYSKGGMSPFWWTTHRCDIM, the amyloid nucleation score was determined as 2.09 ± 0.35. Next, VSFRMVLNYLQVGYSWGHWR: 0.395 ± 0.44; FHYWFIIKVPTWMVYRDLTA: -0.203 ± 0.34; LWGFSISYRKFVVSYGKAP: 0.279 ± 0.31.

In turn, FSYLSFCPVVSFESTFPTPM displayed an amyloid nucleation score of 5.29 ± 0.066. As to HLWSFAEMLNNHAVEDCVCT, the amyloid nucleation score result was “inactive”.

In turn, WVLPEAHVYGRWVT had an amyloid nucleation score of 1.06 ± 0.52. Turning to FGPGCCIFL, the amyloid nucleation score stood at 7.481 ± 0.054.

In the case of FQMLF, the amyloid nucleation score was -0.752 ± 0.7. Next, VNCVGKLKFDE: 0.05 ± 0.18; FNFMFAKDGGSDTFLRFDRV: 4.83 ± 0.11; PIFAVTKVQVMRPH: -1.94 ± 2.7. With SLKDVPISCFNYMHC the figure was 4.39 ± 0.094; with IQSRDGVSYKQDVWTLGCVL, 0.658 ± 0.55; with LSFCDTQRMWSSDG, 0.483 ± 0.85. With SKSYVM the figure was 0.468 ± 0.29. In the case of YDYLDALHLTEASKSGCLVN, the amyloid nucleation score came out at 0.423 ± 0.69.

CHQFV came in with an amyloid nucleation score of 0.833 ± 0.5. With IATNRGMCLGLRVSGLDMAR the figure was 1.13 ± 0.49.

In the case of CSKSS, the amyloid nucleation score is -0.909 ± 2.7. Turning to YFLRHCCPD, the amyloid nucleation score is -1.8 ± 2.4. Next, RGFWLERCSWTF: -0.003 ± 0.37; LAMLSNGSFNGLFLLWSRCH: 0.525 ± 0.35.

Consider RDTNVWFHT, for which the amyloid nucleation score is -0.267 ± 1.1. With GIEKLHDRITSLIFLSMGRR the figure was 1.8 ± 0.19; with ARATQAEYRIERRGRFCILS, 0.21 ± 0.38; with IHLNQ, 1.15 ± 0.55. Next, SMFRAFKGYLWGNCSREAQR: 0.026 ± 0.25; KPLCLNYKCLYIILVCVGDP: 0.151 ± 0.27.

With SMMSGCGTGVAPKAWSGDGW, the amyloid nucleation score worked out at 0.974 ± 0.62.

The substance MFIYIYGVPVLTLWGFNVCV registered an amyloid nucleation score of 0.856 ± 0.48.

For GYSGLLYVSRVVSYLIHFWV, the amyloid nucleation score stood at 0.702 ± 0.47. Next, LSRDHCKNLNLNP: -0.084 ± 1.1; GYLSHII: -0.112 ± 0.51; FEFDNR: -0.003 ± 0.53. With VRCNGDLQDKYRISFCNKSR the figure was 0.01 ± 1.2. Next, VRLMQIWGV: -0.5 ± 2.1; AYPWRITFDAWISYV: 0.294 ± 0.76. Take FSSICSRMEEGMTE: the amyloid nucleation score worked out at 0.001 ± 0.34. The substance CCGMSGLSIGDGKNFMSGWV yielded an amyloid nucleation score of 1.82 ± 0.45. With YSDSMTIKRDSLWVIGTLEL the figure was 1.94 ± 0.21.

Take SVLKSITPNGPLLFSYVCSI: the amyloid nucleation score was -1.56 ± 0.58. With HLRCCIKTLRVSHYGGPALR the figure was -0.596 ± 0.37; with MKLNGFVWPG, -0.256 ± 0.55. Regarding FQSISGFSATHWIFFMEGTY, the amyloid nucleation score was 0.216 ± 0.45. With NSVFVPFGKEF the figure was -0.493 ± 0.39; with LLSRFRNCNKFDVRQSLRQN, 5.328 ± 0.051.

(Values after the supplement of paper PMC12042874.)
